Experimental data taken from patent US20160129078A1, “Rhomboid Proteins and Uses Thereof” (Queen's University at Kingston, priority 2014, published 2016).

Tested on: MDA-MB-468 breast cancer cells
Experiment: MTT viability assay, sensitization to lapatinib
Type: cell-based, human
Settings: co-treatment with lapatinib; most prominent at 10 or 15 uM after 48 and 72 hours; 5 or 10 ug protein
Excerpt: Experiments were thus conducted to assess the ability of At1g74130 proteins or variants to enhance the sensitivity of two breast cancer cell lines to the chemotherapeutic drug lapatinib. The breast cancer cell lines selected for these assays were MDA-MB-231 and MDA-MB-468, two cell lines used frequently in cancer research. Any impact on the cells' ability to pump or transport drugs (in and out) may alter the efficacy a chemotherapeutic drug, e.g., by enhancing levels of cell death) or by increasing effectiveness at lower dosage levels. The design of the breast cancer cell assays was similar to that used for bacteria in the above examples, results, and figures. In these studies, the widely used MTT (methyl thiazolyl diphenyl-tetrazolium bromide) viability assay procedure was used to assess any impact exerted by At1g74130 variant S (see, for example, the MTT procedure described by Nagaria, T. S., et al., Flavopiridol synergizes with sorafenib to induce cytotoxicity and potentiate antitumorigenic activity in EGFR/HER-2 and mutant RAS/RAF breast cancer model systems, Neoplasia, 15:939-951, 2013).
Cells were cultured at 37° C. in 96-well plates (10,000 cells in 100 ul media per well) for 24-48 hours to near confluency. […] The assays were then read at 570 nm using a microplate scanning spectrophotometer. […]

B1: At1g74130 S: 6/7 S-form splice variant of Arabidopsis At1g74130 rhomboid protein (protein, listed as Arabidopsis thaliana)
chain: MHAIFCRRVAVGCSSPQLTKLVTKQASQSRHSLSHLLPFDLSSRFVPPYVVSRSARVHGFFAGKLGNTNLKLKFGNVMESRAGFFSSELPSHGFESGGFTGFQKRGWKSWINGANGVVFGLVIANAAVFTMWRVLGKDNMWMVKNFMLSRYSFMTGRIHTLITSGFSHVGATHIILNMMGLCYFGARIARSFGPRYLLKLYFAGALGGSVFFLSSHALSVISLKGQRVVPKDQLKVPIGKLGANGPVYAITLLDMLLYPKVTTYFGLMLRVPVFAVRESIA
  increase in level of cell death: 20 to 40%
